# Reference: patent publication US20030037355, “Methods and compositions to modulate expression in plants” (published 2003)
# B1: m34 hairpin oligo (dsDNA)
# DNA: GGAGCCAACTACTACGGCTCCCTCACCGGGTTTTCCCGGTGAGGGAGCCGTAGTAGTTGGCTCC
# Columns and labels:
# [1] = target: T1, ZFPm3 six-finger zinc finger protein (Sp1C framework) (artificial); assay: ELISA, 1.9 ug/ml protein; details: tags: MBP fusion (pMAL-C2), E. coli; label: 5'-biotin (ELISA); 32P (gel shift); hairpin
# Method: (§1) Coat ELISA plates (Costar 3690) with streptavidin. Use 25 ul/well of 8 ug/ml streptavidin in PBS. Incubate at 37° C. for 1 hr. Wash 2× with dH2O. Bind wells with 25 ul/well of 4 ng/ul biotinylated target oligonucleotide in PBS. Incubate at 37° C. for 1 hr. Wash 2× with dH2O. Block with 175 ul/well of 3% BSA in Zn Buffer A. Incubate at 37° C. for 1 hr. Tap plates dry. Perform 1:2 serial dilutions of extract in Binding Buffer (1%BSA, 5 mM DTT, .12 ug/ul Salmon Sperm DNA in ZnBA). Usually from 1:4 to 1:512 for multi-target ELISA or 1:4 to 1:32 for screening clones for specific DNA binding activity. Incubate 1 hr at room temperature. Wash 8× with dH2O. Add primary antibody: 25 ul/well of 1:1000 dilution of mouse anti-MBP (Sigma M-6295) in 1%BSA ZnBA (no DTT). Incubate 30 min at room temperature. Wash 8× with dH2O. Add secondary antibody: 25 ul/well of 1:1000 dilution of goat anti-mouse/Alkaline Phosphatase (Pierce 31324) in 1%BSA ZnBA (no DTT). Incubate 30 min at room temperature. Wash 8× with dH2O. […] Read A405 with a plate reader.
# (§2) To evaluate the specificity of new zinc finger protein, the affinity of each protein was determined for binding to the target sequence and several non-target sequences at appropriate protein concentration. […] The affinity reading for target oligo was further normalized to the no oligo control which has the least affinity.
# [2] = target: T1, ZFPm3 six-finger zinc finger protein …; assay: EMSA; Zn Buffer A, 10% glycerol, 0.8% BSA, salmon sperm DNA, room temp; details: tags: MBP fusion (pMAL-C2), E. coli; label: 5'-biotin (ELISA); 32P (gel shift); hairpin
# Method: (§3) The affinity of the purified six-finger proteins was measured using gel shift assay. The target oligos used in the ELISA assays were radioactively labeled using [γ32P]-ddATPk and terminal transferase. Ten serial dilutions of 1:3 with the purified protein (starting with ˜1 mg/ml) in binding buffer (1 pM labeled oligo, 10% Glycerol, 0.8% BSA, 0.1 ug/ul salmon sperm DNA in Zn Buffer A) were performed. The ZFP was allowed to bind at room temperature for 1 hr. The samples were then run on 5-6% non-denaturing PAGE gel in TBE. The gel was dried and exposed with Phosphoimager. The affinity (Kd) of the ZFP was calculated from this gel. The Kd value is the concentration of the protein at which half of the labeled oligo is shifted to a higher molecular weight on the gel by binding to the ZFP. […] Most of these affinities compare favorably with the existed 6 finger proteins.
# [3] = target: T2, ZFPm4 six-finger zinc finger protein (Sp1C framework) (artificial); assay: as above; details: tags: MBP fusion (pMAL-C2), E. coli; label: 5'-biotin (ELISA); 32P (gel shift); hairpin
# Method: as §3
# [4] = target: ZFPm1 six-finger zinc finger protein (Sp1C framework) (artificial); assay: ELISA, 31.0 ug/ml protein, non-target; details: tags: MBP fusion (pMAL-C2), E. coli, hairpin
# Method: (§4) Coat ELISA plates (Costar 3690) with streptavidin. Use 25 ul/well of 8 ug/ml streptavidin in PBS. Incubate at 37° C. for 1 hr. Wash 2× with dH2O. Bind wells with 25 ul/well of 4 ng/ul biotinylated target oligonucleotide in PBS. Incubate at 37° C. for 1 hr. Wash 2× with dH2O. Block with 175 ul/well of 3% BSA in Zn Buffer A. Incubate at 37° C. for 1 hr. Tap plates dry. Perform 1:2 serial dilutions of extract in Binding Buffer (1%BSA, 5 mM DTT, .12 ug/ul Salmon Sperm DNA in ZnBA). Usually from 1:4 to 1:512 for multi-target ELISA or 1:4 to 1:32 for screening clones for specific DNA binding activity. Incubate 1 hr at room temperature. Wash 8× with dH2O. Add primary antibody: 25 ul/well of 1:1000 dilution of mouse anti-MBP (Sigma M-6295) in 1%BSA ZnBA (no DTT). Incubate 30 min at room temperature. Wash 8× with dH2O. Add secondary antibody: 25 ul/well of 1:1000 dilution of goat anti-mouse/Alkaline Phosphatase (Pierce 31324) in 1%BSA ZnBA (no DTT). Incubate 30 min at room temperature. Wash 8× with dH2O. Develop with 25 ul developer (1 tablet of Sigma 104 Phosphatase Substrate (Sigma 104-105)/5 ml AP Developing Buffer [100 ml diethanolamine+0.05 g MgCl2+97.5 Sodium Azide, adjust to 500 ml with ddH2O, pH 9.88]). Incubate at room temperature for 5-60 min until color reaction is yellow. Read A405 with a plate reader.
# (§5) To evaluate the specificity of new zinc finger protein, the affinity of each protein was determined for binding to the target sequence and several non-target sequences at appropriate protein concentration. For example, to protein ZFPm1 and ZFPm2, the non-target oligoes are: Oligo m34 (SEQ ID NO:20), Oligo Ap3 (SEQ ID NO:21), NRI-1 (SEQ ID NO:22), NRI-2 (SEQ ID NO:23), hHD-I (SEQ ID NO:24), hHD-II (SEQ ID NO:25), c5cl-g (SEQ ID NO:26), c5p3-g (SEQ ID NO:27), B3c2 (SEQ ID NO:28), and e2c-g (SEQ ID NO:29). Similarly, to protein ZFPm3 and ZFPm4, the non-target oligoes are Oligo m12 (SEQ ID NO:19), oligo Ap3 (SEQ ID NO:21), and the eight other oligoes. To protein ZFPAp3, the non-target oligoes are Oligo m12, oligo m34 (SEQ ID NO:20), and the eight other oligoes. The affinity reading for target oligo was further normalized to the no oligo control which has the least affinity.
# [5] = target: ZFPAp3 six-finger zinc finger protein (Sp1C framework) (artificial); assay: ELISA, 31.0 ug/ml protein, non-target; details: tags: MBP fusion (pMAL-C2), E. coli, hairpin
# Method: as §4, §5
# [6] = target: ZFPm2 six-finger zinc finger protein (Sp1C framework) (artificial); assay: ELISA, 15.5 ug/ml protein, non-target; details: tags: MBP fusion (pMAL-C2), E. coli, hairpin
# Method: as §4, §5
# [7] = target: T2, ZFPm4 six-finger zinc finger protein …; assay: ELISA, 15.5 ug/ml protein; details: tags: MBP fusion (pMAL-C2), E. coli; label: 5'-biotin (ELISA); 32P (gel shift); hairpin
# Method: as §1, §2
# [8] = target: T1, ZFPm3 six-finger zinc finger protein …; assay: ELISA, 1.9 ug/ml protein, non-target; details: tags: MBP fusion (pMAL-C2), E. coli; label: 5'-biotin; hairpin
# Method: as §4, §5
# [9] = target: T2, ZFPm4 six-finger zinc finger protein …; assay: ELISA, 15.5 ug/ml protein, non-target; details: tags: MBP fusion (pMAL-C2), E. coli; label: 5'-biotin; hairpin
# Method: as §4, §5
# [10] = label: 5'-biotin (ELISA), 32P (gel shift)
# Sequence of ZFPm2 six-finger zinc finger protein (Sp1C framework) (artificial) (chain, as listed by the source): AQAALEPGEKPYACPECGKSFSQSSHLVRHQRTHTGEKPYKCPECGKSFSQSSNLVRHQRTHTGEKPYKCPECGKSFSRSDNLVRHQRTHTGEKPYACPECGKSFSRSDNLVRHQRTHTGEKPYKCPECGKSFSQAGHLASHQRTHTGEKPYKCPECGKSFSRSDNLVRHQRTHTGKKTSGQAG
# T2 sequence (chain, as listed by the source): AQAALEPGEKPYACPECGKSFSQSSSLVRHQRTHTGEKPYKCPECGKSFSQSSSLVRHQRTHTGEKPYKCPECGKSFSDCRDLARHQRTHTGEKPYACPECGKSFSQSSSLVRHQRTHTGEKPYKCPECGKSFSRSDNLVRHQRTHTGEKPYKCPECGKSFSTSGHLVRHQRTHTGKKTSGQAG
# T1 sequence (chain, as listed by the source): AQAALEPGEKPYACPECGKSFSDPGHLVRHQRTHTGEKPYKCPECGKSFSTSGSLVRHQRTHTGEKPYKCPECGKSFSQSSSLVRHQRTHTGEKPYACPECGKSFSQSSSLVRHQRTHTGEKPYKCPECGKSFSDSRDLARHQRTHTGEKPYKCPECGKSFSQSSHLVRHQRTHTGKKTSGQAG
# Sequence of ZFPAp3 six-finger zinc finger protein (Sp1C framework) (artificial) (chain, as listed by the source): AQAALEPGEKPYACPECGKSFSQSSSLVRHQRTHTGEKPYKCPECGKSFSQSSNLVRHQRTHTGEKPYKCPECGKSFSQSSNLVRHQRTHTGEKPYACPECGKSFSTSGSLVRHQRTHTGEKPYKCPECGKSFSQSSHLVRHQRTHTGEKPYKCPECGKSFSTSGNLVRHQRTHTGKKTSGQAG
# Sequence of ZFPm1 six-finger zinc finger protein (Sp1C framework) (artificial) (chain, as listed by the source): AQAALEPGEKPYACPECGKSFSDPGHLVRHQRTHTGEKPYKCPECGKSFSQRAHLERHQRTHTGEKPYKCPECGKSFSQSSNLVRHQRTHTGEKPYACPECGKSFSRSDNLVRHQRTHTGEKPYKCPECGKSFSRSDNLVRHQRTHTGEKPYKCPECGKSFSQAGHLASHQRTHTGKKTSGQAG
Binder,binding signal [1] [fold over no oligo],Kd [2] [nM],Kd [3] [nM],"binding signal [4, 10] [fold over no oligo]","binding signal [5, 10] [fold over no oligo]","binding signal [6, 10] [fold over no oligo]",binding signal [7] [fold over no oligo],binding signal [8] [fold over no oligo],binding signal ([4]; label: 5'-biotin) [fold over no oligo],binding signal ([5]; label: 5'-biotin) [fold over no oligo],binding signal [9] [fold over no oligo],binding signal ([6]; label: 5'-biotin) [fold over no oligo]
B1,13,0.18,0.25,5,10,13,16,–,–,–,–,–
GGTTCTACCCCTCCCACCGCGGGTTTTCCCGCGGTGGGAGGGGTAGAACC (dsDNA) [NRI-1],–,–,–,–,–,–,–,4,5,8,5,7
GGTGCGGCGACTGCAGCAGCGGGTTTTCCCGCTGCTGCAGTCGCCGCACC (dsDNA) [NRI-2],–,–,–,–,–,–,–,6,4,4,3,2
GGGGCCCCGCCTCCGCCGGCGGGTTTTCCCGCCGGCGGAGGCGGGGCCCC (dsDNA) [hHD-I],–,–,–,–,–,–,–,1,5,2,2,3
GGGGCAGCCCCCACGGCGCCGGGTTTTCCCGGCGCCGTGGGGGCTGCCCC (dsDNA) [hHD-II],–,–,–,–,–,–,–,3,4,2,2,2
GGGACACCCCCAACCCCGCCGGGTTTTCCCGGCGGGGTTGGGGGTGTCCC (dsDNA) [c5c1-g],–,–,–,–,–,–,–,3,7,2,3,5
